Biological target: amyloid beta-protein 40 (Aβ40) (human) (UniProt P05067)

Substance: plasminogen isolated and purified from plasma of a human donator (enzyme)
- Aβ40 content by Tricine-SDS-PAGE with quantitative scanning (solvent control defined as 100%): 74.8%

— patent publication US20230173039A1
